From patent CN111333724A (INST MILITARY MEDICINE ACADEMY MILITARY SCIENCES PLA, dated 2020)

Assays:
His-SEB蛋白 [1] = target: T1, His-SEB蛋白 (Staphylococcus aureus, UniProt P01552 28-266)
T1 sequence: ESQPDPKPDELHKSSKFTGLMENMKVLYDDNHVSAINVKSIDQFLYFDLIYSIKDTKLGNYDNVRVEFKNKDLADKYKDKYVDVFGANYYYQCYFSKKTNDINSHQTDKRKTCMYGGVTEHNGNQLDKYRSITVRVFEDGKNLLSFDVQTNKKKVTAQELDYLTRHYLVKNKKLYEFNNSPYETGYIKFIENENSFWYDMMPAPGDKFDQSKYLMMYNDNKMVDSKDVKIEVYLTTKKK

His-SEB蛋白 [2] = target: T1, His-SEB蛋白; remark: listed apart in the source

B1: YG11-1抗体 (antibody, V domains shown)
VH: QVQLVESGGGVVQPGRSLRLSCAASGFSLSDHAVHWVRQAPGKGLEWVALISYDGSDKYYKDSVKGRFTISRDNPKNTLYLQMTSLKPEDTAVYYCARQGGNKNINYFFQYLDVWGQGTMVTVSS
VL: DIVMTQTPSSLSASVGDRVNISCRASQTISNHLNWYLQKPGKAPKLLIYDASSLESGVPSRFSGSGSGTDFTLTISSLQPEDFATYYCQQFINYPPTFGPGTKLEIKR
His-SEB蛋白 [1]
  Kd: 16.6 nM
  koff: 0.0169 s⁻¹
  kon: 1.02e+06 M⁻¹ s⁻¹
His-SEB蛋白 [2]
  EC50: 0.013 µg/mL
